Data reported in patent publication US20220204575A1, “MODULATING SURVIVAL OF THERAPEUTIC CELLS AND METHODS, CELLS AND NUCLEIC ACIDS RELATED THERETO” (The Regents of the University of California, priority 2019, published 2022).

What was measured:
[1] = test system: human primary CD4 T cells; assay: Anti-Her2 synNotch driving pro-apoptotic BCL-2 family protein X, T cell survival with antigen-expressing target cells; format: cell-based; conditions: for induced apoptosis of T cells: in the presence of antigen-expressing target cells
Description: For example, a circuit was designed, as schematically depicted in FIG. 27, with an anti-Her2 synNotch driving expression of a pro-apoptotic BCL-2 family protein “X”, where X stands for the various pro-apoptotic BCL-2 family members were tested in the depicted circuit. As shown, upon the anti-Her2 scFv portion of the synNotch receptor binding Her2 expressed by a target cell, the transcription factor (TF) portion of the synNotch, containing Gal4-VP64, is released and inducing expression of the pro-apoptotic BCL-2 family protein “X”. The level of induced apoptosis in the presence of cells expressing the target antigen, as compared to control cells not expressing the target antigen, was then assessed.
Results of testing BID, tBID, PUMA, BMF, HRK and BIK as pro-apoptotic BCL-2 family protein “X” in this system are shown in FIG. 28, along with a negative control employing BFP in place of the pro-apoptotic BCL-2 family protein “X”.
Thus, the therapeutic cells encoding the BID circuit were able to survive BID induction.

primary human T cells = assay: Constitutive overexpression of pro-apoptotic BCL-2 family proteins in T cells, FACS at culture day 12; format: cell-based; conditions: constitutive expression
Description: The abilities of several pro-apoptotic proteins (e.g., BIM, truncated Bid (tBID), and BAD) to induce T cell apoptosis when synthetically overexpressed from a constitutive promoter were tested. The tested T cells were also engineered to constitutively overexpress anti-apoptotic BCL-2.
Without being bound by theory, these effects were likely due to leaky expression of BIM, the high effectiveness of BIM in inducing apoptosis, or a combination thereof.

Molecule | relative level of induced therapeutic cell killing ([1]; comparison among tBID, PUMA, BMF, HRK and BIK) | induced apoptosis of T cells [1] | ability to drive T cell death (primary human T cells; in the absence of overexpressed BCL-2) | ability to induce T cell apoptosis / drive T cell death (primary human T cells; with constitutive overexpression of BCL-2, culture day 12)
BIK: pro-apoptotic BIK protein, human UniProt Q13323, SEQ ID NO: 104 (protein) MSEVRPLSRDILMETLLYEQLLEPPTMEVLGMTDSEEDLDPMEDFDSLECMEGSDALALRLACIGDEMDVSLRAPRLAQLSEVAMHSLGLAFIYDQTEDIRDVLRSFMDGFTTLKENIMRFWRSPNPGSWVSCEQVLLALLLLLALLLPLLSGGLHLLLK | lower level of induced therapeutic cell killing | induce apoptosis of human primary CD4 T cells |  | 
PUMA: pro-apoptotic PUMA protein, human UniProt Q9BXH1 (protein, UniProt Q9BXH1 1-193, looked up) Bcl-2-binding component 3, …: MARARQEGSSPEPVEGLARDGPRPFPLGRLVPSAVSCGLCEPGLAAAPAAPTLLPAAYLCAPTAPPAVTAALGGSRWPGGPRSRPRGPRPDGPQPSLSLAEQHLESPVPSAPGALAGGPTQAAPGVRGEEEQWAREIGAQLRRMADDLNAQYERRRQEEQQRHRPSPWRVLYNLIMGLLPLPRGHRAPEMEPN |  | induce apoptosis of human primary CD4 T cells |  | 
BAD: pro-apoptotic BH3-only BCL-2 family protein, UniProt Q92934, heterologously expressed in T cells (protein, UniProt Q92934 1-168, looked up) Bcl2-associated agonist of …: MFQIPEFEPSEQEDSSSAERGLGPSPAGDGPSGSGKHHRQAPGLLWDASHQQEQPTSSSHHGGAGAVEIRSRHSSYPAGTEDDEGMGEEPSPFRGRSRSAPPNLWAAQRYGRELRRMSDEFVDSFKKGLPRPKSAGTATQMRQSSSWTRVFQSWWDRNLGRGSSAPSQ |  |  | insufficient to drive T cell death | insufficient to drive T cell death
